Test [1] addresses T1, human PD-1 (human, UniProt Q15116 25-170).
T1 construct: extracellular domain; also called PD-1 antigen
Nature of the test: ELISA, PD-1 coated. For orientation: An ELISA detects its analyte on a solid surface through an enzyme-linked reagent.

In test [2] the target is T1, human PD-1. In words: blocking ELISA: PD-1 coated, biotin-labelled PD-L1.
The target in test [3] is T1, human PD-1. Nature of the test: blocking ELISA; IC50 ratio to the control monoclonal antibody.
In test [4] the target is T1, human PD-1. In words: ELISA; EC50 ratio to the control monoclonal antibody.

Here are results for five molecules from patent publication US20210230272A1 (L AND L BIOPHARMA, published 2021).

Usually EC50 stands for the concentration giving half of the maximal effect. Read a high EC50 as weaker potency. Usually IC50 stands for the midpoint of a concentration-inhibition curve. Low values mean inhibition by little substance, high ones a need for much substance.

T1 sequence (Q15116 25-170): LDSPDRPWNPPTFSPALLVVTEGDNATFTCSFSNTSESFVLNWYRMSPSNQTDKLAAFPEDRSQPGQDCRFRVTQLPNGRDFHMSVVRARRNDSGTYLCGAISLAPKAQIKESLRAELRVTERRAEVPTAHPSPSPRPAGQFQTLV

B1: LB309 (bispecific antibody)
chain 1: not shown
chain 2: QVQLVQSGAEVKKPGSSVKVSCKASGYAFSNYLIEWVKQAPGQGLEWIGLINPGSGGTNYNEKFKGKATITADKSTSTAYMELSSLRSEDTAVYYCARVYYGNSFAYWGQGTLVTVSS
chain 3: DIVMTQSPDSLAVSLGERATISCKSSQSLLNSGNQKNYLTWYQQKPGQPPKLLIYWASTRESGVPDRFSGSGSGTDFTLTISSLQAEDVAVYYCQNDYFYPFTFGQGTKLEIK
chain 4: not shown
B1: a half-maximal effect in test [1] (EC50) was put at 0.16 nM. Moreover, the IC50 in test [2] was 0.8 nM. Besides, the IC50 fold change in test [3] stood at 2.42. Also, the EC50 fold change in test [4] was found to be 1.33.

B2: LB314 (bispecific antibody)
chain 1: DIVMTQSPDSLAVSLGERATISCKSSQSLLNSGNQKNYLTWYQQKPGQPPKLLIYWASTRESGVPDRFSGSGSGTDFTLTISSLQAEDVAVYYCQNDYFYPFTFGQGTKLEIK
chain 2: QVQLVQSGAEVKKPGSSVKVSCKASGYAFSNYLIEWVKQAPGQGLEWIGLINPGSGGTNYNEKFKGKATITADKSTSTAYMELSSLRSEDTAVYYCARVYYGNSFAYWGQGTLVTVSS
chain 3: not shown
chain 4: QVQLVQSGAEVKKPGSSVKVSCKASGYAFSNYLIEWVKQAPGQGLEWIGLINPGSGGTNYNEKFKGKATITADKSTSTAYMELSSLRSEDTAVYYCARVYYGNSFAYWGQGTLVTVSS
chain 5: DIVMTQSPDSLAVSLGERATISCKSSQSLLNSGNQKNYLTWYQQKPGQPPKLLIYWASTRESGVPDRFSGSGSGTDFTLTISSLQAEDVAVYYCQNDYFYPFTFGQGTKLEIK
chain 6: not shown
B2 returned an EC50 in test [1] of 0.083 nM. In addition, the EC50 fold change in test [4] worked out at 5.2.

B3: LB313 (bispecific antibody)
chain 1: not shown
chain 2: EIVLTQSPATLSLSPGERATLSCRASKGVSTSGYSYLHWYQQKPGQAPRLLIYLASYLESGVPARFSGSGSGTDFTLTISSLEPEDFAVYYCQHSRDLPLTFGGGTKVEIKRTVAAPSVFIFPPSDEQLKSGTASVVCLLNNFYPREAKVQWKVDNALQSGNSQESVTEQDSKDSTYSLSSTLTLSKADYEKHKVYACEVTHQGLSSPVTKSFNRGEC
chain 3: QVQLVQSGAEVKKPGSSVKVSCKASGYAFSNYLIEWVKQAPGQGLEWIGLINPGSGGTNYNEKFKGKATITADKSTSTAYMELSSLRSEDTAVYYCARVYYGNSFAYWGQGTLVTVSS
chain 4: DIVMTQSPDSLAVSLGERATISCKSSQSLLNSGNQKNYLTWYQQKPGQPPKLLIYWASTRESGVPDRFSGSGSGTDFTLTISSLQAEDVAVYYCQNDYFYPFTFGQGTKLEIK
The molecule B3 yielded an EC50 in test [1] of 0.048 nM. The EC50 fold change in test [4] is 3.4.

B4: LB312 (bispecific antibody)
chain 1: not shown
chain 2: DIVMTQSPDSLAVSLGERATISCKSSQSLLNSGNQKNYLTWYQQKPGQPPKLLIYWASTRESGVPDRFSGSGSGTDFTLTISSLQAEDVAVYYCQNDYFYPFTFGQGTKLEIK
chain 3: QVQLVQSGAEVKKPGSSVKVSCKASGYAFSNYLIEWVKQAPGQGLEWIGLINPGSGGTNYNEKFKGKATITADKSTSTAYMELSSLRSEDTAVYYCARVYYGNSFAYWGQGTLVTVSS
chain 4: EIVLTQSPATLSLSPGERATLSCRASKGVSTSGYSYLHWYQQKPGQAPRLLIYLASYLESGVPARFSGSGSGTDFTLTISSLEPEDFAVYYCQHSRDLPLTFGGGTKVEIKRTVAAPSVFIFPPSDEQLKSGTASVVCLLNNFYPREAKVQWKVDNALQSGNSQESVTEQDSKDSTYSLSSTLTLSKADYEKHKVYACEVTHQGLSSPVTKSFNRGEC
For the molecule B4, a half-maximal response in test [1] (EC50) required 0.042 nM. In addition, the EC50 fold change in test [4] turned out to be 3.

B5: LB308 (bispecific antibody)
chain 1: not shown
chain 2: QVQLVQSGAEVKKPGSSVKVSCKASGYAFSNYLIEWVKQAPGQGLEWIGLINPGSGGTNYNEKFKGKATITADKSTSTAYMELSSLRSEDTAVYYCARVYYGNSFAYWGQGTLVTVSS
chain 3: DIVMTQSPDSLAVSLGERATISCKSSQSLLNSGNQKNYLTWYQQKPGQPPKLLIYWASTRESGVPDRFSGSGSGTDFTLTISSLQAEDVAVYYCQNDYFYPFTFGQGTKLEIK
chain 4: EIVLTQSPATLSLSPGERATLSCRASKGVSTSGYSYLHWYQQKPGQAPRLLIYLASYLESGVPARFSGSGSGTDFTLTISSLEPEDFAVYYCQHSRDLPLTFGGGTKVEIKRTVAAPSVFIFPPSDEQLKSGTASVVCLLNNFYPREAKVQWKVDNALQSGNSQESVTEQDSKDSTYSLSSTLTLSKADYEKHKVYACEVTHQGLSSPVTKSFNRGEC
B5 displayed an EC50 in test [1] of 0.25 nM. This molecule also yielded an IC50 in test [2] of 1.93 nM. Besides, the IC50 fold change in test [3] came to 1.8. Also, the EC50 fold change in test [4] is 0.93.
